Assays:
His-Nectin-4 ECD = target: T1, His-Nectin-4 ECD (human, UniProt Q96NY8); test: BLI, 26C
T1 chain: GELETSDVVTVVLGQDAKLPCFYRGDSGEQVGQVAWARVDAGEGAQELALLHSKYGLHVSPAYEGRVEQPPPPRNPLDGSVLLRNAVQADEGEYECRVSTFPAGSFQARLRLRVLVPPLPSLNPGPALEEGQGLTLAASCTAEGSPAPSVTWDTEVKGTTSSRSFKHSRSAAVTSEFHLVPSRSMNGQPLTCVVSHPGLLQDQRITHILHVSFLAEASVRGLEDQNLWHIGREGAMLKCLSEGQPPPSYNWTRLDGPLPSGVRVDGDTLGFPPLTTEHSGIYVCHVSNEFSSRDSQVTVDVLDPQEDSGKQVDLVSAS

Fc-Nectin-4 IgV = target: T2, Fc-Nectin-4 IgV (human, UniProt Q96NY8); test: BLI, 26C, bivalent analyte
T2 chain: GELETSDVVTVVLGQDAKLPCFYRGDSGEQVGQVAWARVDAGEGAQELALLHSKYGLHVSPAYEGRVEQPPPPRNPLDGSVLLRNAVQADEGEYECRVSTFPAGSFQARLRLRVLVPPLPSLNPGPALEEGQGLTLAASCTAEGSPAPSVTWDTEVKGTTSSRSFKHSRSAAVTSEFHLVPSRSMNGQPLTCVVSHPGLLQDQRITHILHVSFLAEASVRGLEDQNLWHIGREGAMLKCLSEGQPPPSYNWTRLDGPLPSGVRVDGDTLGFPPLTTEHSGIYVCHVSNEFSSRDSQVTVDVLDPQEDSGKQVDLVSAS

- Kd (His-Nectin-4 ECD): 5.2 nM
- Kd (Fc-Nectin-4 IgV): 12.9 nM
B1: HA22 (Enfortumab) (antibody, V domains shown)
VH: EVQLVESGGGLVQPGGSLRLSCAASGFTFSSYNMNWVRQAPGKGLEWVSYISSSSSTIYYADSVKGRFTISRDNAKNSLSLQMNSLRDEDTAVYYCARAYYYGMDVWGQGTTVTVSS
VL: DIQMTQSPSSVSASVGDRVTITCRASQGISGWLAWYQQKPGKAPKFLIYAASTLQSGVPSRFSGSGSGTDFTLTISSLQPEDFATYYCQQANSFPPTFGGGTKVEIK
